# From US20120207760A1 (THERACLONE SCIENCES, published 2012)
# B1: TCN-550 (5096_F06) (antibody, V domains shown)
# VH: QVQLQESGPGLVKPSETLSLTCTVSGASINSHYWSWIRQPPGKGLEWIGYVYYSGSTTYNPSLKSRVTLSVDTSKNQFSLNLSSVTAADTAFYYCARHPYDVLTGSGDWFDPWGQGTLVTVSS
# VL: SYVLTQAPSVSVAPGQTARITCGGNAIGSKKVHWYQHKAGQAPVLVVYDDTDRPSGIPERFSGSNSWSTATLTINRVEAGDEADYYCQVWDFTIDHVVFGGGTKLTVL
# B2: TCN-547 (5092_F11) (antibody, V domains shown)
# VH: QVQLQESGPGLVKPSQTLSLTCTVSGDSISSVDHYWSWIRQHPVKGLEWIGFMYYSASTYYNPSLKSRVTISTDTSKNQFSLRLSSVTAADTAVYYCARGTCAGDCSLHYYYYGLDVWGQGRTVTVSS
# VL: DIQMTQSPSSLSASVGDRVTITCRASQSISSYLNWYQHKPGKAPKVLMYAVSILQSGVPSRFSGSGSGADFTLTISSLQPEDFATYYCQQSYSSPLTFGGGTKVEIK
# B3: TCN-545 (5082_I15) (antibody, V domains shown)
# VH: QVQLQQWGAGLLKPSETLSLSCAVFGGSFSDYYWTWIRQPPGKGLEWIGEIKHSGRTNYNPSLESRVTISVDTSKNQFSLKLSSVTAADTAIYYCARGTDPDTEGYCRSGSCSAFDFWGQGTLVTVSS
# VL: EIVLTQSPGTLSLSPGERATLSCRASHFVNYRSLAWYQQTPGQVPRLLIYGASTRATGIPDRFSGSGSGTDFTLTISRLEPEDFAVYFCQQYGGSPRYTFGQGTRLEIK
# B4: TCN-553 (5261_C18) (antibody, V domains shown)
# VH: QVQVVQSGTEVKKPGSSVKVSCQTSGGRFMSYAITWVRQAPGQGLEWMGGIVPVFGTANYAQKFQGRVTITTDDSTRTAYMELSSLRSEDTAVYYCGFRYGSGYGFDSWGQGTLVTVSS
# VL: EIVLTQSPGTLSLSPGERATLSCRASQSVSSSYLAWYQKKPGQAPRLLIYGASTRATGIPDRFTGSGSGTDFTLSISRLEPEDFAVYYCQHFGTSVFTFGGGTKVEIK
# B5: TCN-560 (5084_P10) (antibody, V domains shown)
# VH: EVQLVESGGGLVQPGGSLRLSCAASGFIFRNYWMSWVRQAPGKGLEWVANIKQDGREKYYVDSLRGRVNISRDNAENSLYLHMNSLRVEDTAVYFCARARMVVVTGDGFDVWGHGTMVTVSS
# VL: DIQMTQSPSSLSASVGDRVTITCRASQNIKRYFNWYQQKPGKAPKLLIYAASNLENGVPSRFSGSGSGTDFTLTISSLQPEDFATYYCQQSFSKSWTFGQGTNVDIK
# B6: TCN-555 (5246_L16) (antibody, V domains shown)
# VH: QVQLVQSGAEVKRPGSSVKVSCTASGGIFRKNAISWVRQAPGQGLEWMGGIIAVFNTANYAQKFQNRVKITADESGNTAYMELSSLTSDDTAVYYCASHPKYFYGSGSYPDFWGQGTLVTVSS
# VL: QSALTQPRSVSGSPGQSITISCTGGSSDIGASNSVSWYQQHPGKAPKLVIFDVTERPSGVPHRFSGSKSGNTASLTVSGLQPDDEADYFCCAYGGKYLVVFGGGTKVTVL
# B7: TCN-544 (5082_A19) (antibody, V domains shown)
# VH: QVQLQESGPGLVKPSETLSLTCTVSRGSIGHYFWSWIRQPPGKGLEWIGYISYSGSTKYNPSLRSRVTISVDTSKNQFSLNLNSVTATDTALYYCAREDYDILTGAGPGMEVWGQGTTVTVSS
# VL: QSMLTQPPSASGTPGQRVTISCSGSSSNIGSNTVNWFKHLPGTAPKLLIYRNDLRPSGVPDRFSGSKSGTSASLAISGLQSEDEADYYCATWDDSLNGFYVFGTGTKVTVL
# B8: TCN-546 (5089_L08) (antibody, V domains shown)
# VH: QVQLQQWGAGLLKPSETLSLTCGVYGGSLSDYYWSWIRQPPGKGLEWIGEINHSGGTNYNPSLKRRVTISVDTSKKQFSLKMNSVTAADTAVYYCARGTDPDTEVYCRAGNCAAFDFWGQGTLVTVSS
# VL: EIVLTQSPGTLSLSPGERATLSCRASHFVIGRAVAWYQQKPGQAPRLLIYGASSRATGIPDRFSGSGSGTDFTLTISRLETEDFAVFYCQHYGSSPRYAFGQGTKLEIK
# B9: TCN-542 (5079_A16) (antibody, V domains shown)
# VH: QVQLQESGPGLVKPSQTLSLTCTVSGGSISSGNYYWNWVRQHPGKGLEWIGYIYYRGSTFYNPSLKSRVTISIDTSKNQFSLRLSSVTAADTAVYYCAKDTRSSLDNYQYGMDVWGQGTTVTVSS
# VL: QTVVTQEPSLTVSPGGTVTLTCASSTGAVTSSYFPNWFQQKPGQAPRPLIYSTTIRHSWTPARFSGSLLGGKAALTLSGVQPEDEADYYCLLYSGGDPVAFGGGTKLTVL
# B10: TCN-543 (5081_G23) (antibody, V domains shown)
# VH: QVHLVQSGAEVRKPGDSVKVSCKTSGYTFSTYPVAWVRQVPGQGLEWMGWISTYNGNTNFAQNFQGRVTLTTDTTTNTAYMEVRSLKFDDTAVYYCARVEGSYRDFWNNQNRFDPWGQGTLVTVSS
# VL: SYVLTQPPSVSVAPGQTARISCGGSNIGGKSVHWYQQKPGQAPVLVVYDDSGRPSGIPERFSGSNSGDTATLTISRVEAGDEADYFCQVWDNFGGVFGTGTKVTVL
# B11: TCN-556 (5089_K12) (antibody, V domains shown)
# VH: QVQLVQSGAEVKKPGASVKVSCKASGYTFIGYDMHWVRQAPGQGLEWMGWINAKRGGTNYAQKFQGRVTMTRDTSISTAYMELNSLRSDDTAVYYCARGVGSRTTIFGVLNPEFDYWGQGTLVTVSS
# VL: QSALTQPPSASGSPGQSVTISCTGSSSDVGGYDYVSWYQQHPGKAPKLLIYEVTKRPSGVPDRFSGSKSGNTASLTVSGLQAEDEADYYCSSYAGNYNHVFGPGTKVTVL
# B12: TCN-551 (5243_D01) (antibody, V domains shown)
# VH: EVQLVQSGSEVKKPGESLKISCKGSGYSFSNYWIGWVRHMPGKGLEWMGIIYPGDSDTRYSPSFQGQVTMSADKSSSTVYLQWSSLKASDTAIYYCARRGGHSFGYGSGGDTHSEFDSWGQGTLVTVSS
# VL: QSVLTQSPSVSAAPGQKVTISCSGSDSNIGDYFVCWYQHLPGKPPQLLIYENNKRPSGIPDRFSGSKSGTSATLGITGIQTGDEADYYCATWDGSLSAWVFGGGTKLTVL
# B13: TCN-549 (5092_P04) (antibody, V domains shown)
# VH: QVQLVQSGAEVKKPGASVKVSCKASGYTFTGYYMHWVRQAPGQGLEWMGWINPNSGDTNYAQKFQGRVTMTRDTSITTAYMELSSLRSDDTAVYYCARDSPYSSSWSFFDYWGQGPLVTVSS
# VL: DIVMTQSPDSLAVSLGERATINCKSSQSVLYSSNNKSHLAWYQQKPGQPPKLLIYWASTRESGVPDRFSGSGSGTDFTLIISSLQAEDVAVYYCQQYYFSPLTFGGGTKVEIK
# B14: TCN-548 (5092_P01) (antibody, V domains shown)
# VH: QVQLQESGPGLVKPSETLSLTCTVSSGPMSDYYWSWIRQPPGKGLEWIGHVSVSHGGRTKSNPSVMSRVTISVETSKNQFSLKLTSVTAADTAVYYCARLNYYDRSGYHSPDGPSNNWFDPWGQGTLVTVSS
# VL: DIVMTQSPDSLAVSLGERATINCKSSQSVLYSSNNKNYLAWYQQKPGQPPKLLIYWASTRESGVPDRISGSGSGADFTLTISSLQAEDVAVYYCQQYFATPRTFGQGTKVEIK
# B15: TCN-552 (5249_I23) (antibody, V domains shown)
# VH: QVQVVQSGAEVKKPGSSVRVSCQASGGTFMNYAIIWVRRAPGQGLEWMGGIIPVFPTPNYAQMFQGRVTISTDESRSTSFLELTNLRYEDTAVYYCARRIYHGGNSGFDFWGQGTLVTVSS
# VL: EIVLTQSPATLSLSPGERATLSCRASQSVGNYLAWYQQKPGQAPRLLIYDSSNRAPGIPARFSGSGSGTDFTLTISSLAPEDFAVYYCQQRSKWPPMYSFGHGTKLEIK
# B16: TCN-557 (5081_A04) (antibody, V domains shown)
# VH: QVQLVQSGAEVKKPGASVKVSCKASGHTFTGYYIHWVRQAPGQGLEWMGWINPDSGATSSAQNFQGRVTMTGDTSSSTAYMELSRLSFDDTAVYYCARVLFTSPFDFWGEGTLVTVSS
# VL: QAVVTQEPSLAVSPGGTVTLTCGSSTGAVTRGHYPYWFQQKPGQAPRALIYDSAGNRHSWTPARFSGSLLGGKAALTLSGAQPEDEAEYYCLLSYSGVWVFGGGTKLTVL
# Molecular target: Hemagglutinin of influenza A/Solomon Islands/3/06 (H1N1), on inactivated whole virions (Influenza A virus A/Solomon …)
# Experiment: ELISA, B cell culture supernatant on inactivated whole virions
row,Binder,OD450
1,B1,0.06 OD450
2,B2,0.06 OD450
3,B3,3.32 OD450
4,B4,3.6 OD450
5,B5,3.63 OD450
6,B6,2.89 OD450
7,B7,0.32 OD450
8,B8,1.95 OD450
9,B9,3.66 OD450
10,B10,3.63 OD450
11,B11,2.7 OD450
12,B12,3.35 OD450
13,B13,0.09 OD450
14,B14,0.09 OD450
15,B15,3.57 OD450
16,B16,2.32 OD450
